# Test results from FireProtDB (doi:10.1021/bi00250a042).
# B1: Subtilisin-chymotrypsin inhibitor-2A, P01053 (parent)
# chain: MSSVEKKPEGVNTGAGDRHNLKTEWPELVGKSVEEAKKVILQDKPEAQIIVLPVGTIVTMEYRIDRVRLFVDKLDNIAQVPRVG
# Variants of: B1
# Details: Hordeum vulgare; pH 6.3; 25 °C; GdnHCl; Fluorescence; MES 450 mM; reversible: yes; structure 2CI2; whole UniProt chain shown
Variant,ddG of mutation (higher = less stable) [kcal/mol],denaturant m value [kcal/mol/M],denaturant midpoint (higher = more stable) [M],unfolding free energy [kcal/mol]
E61A,1.06,1.78,3.64,6.48
T59D,0.04,1.87,4.01,7.5
T59A,0.68,1.89,3.63,6.86
T59A E61A,0.67,1.94,3.54,6.87
